Reference: patent US20180185450A1 (Sanofi, published 2018)
Numbered stars: 1 amine (or outer) side, 2 acyl side, 3 side chain; on linkers, the order of the positions; unused ones are H or OH. Square brackets hold non-standard residues; d marks the D form. Side chains are listed from the residue outwards. Ends that are not written are not given here. γGlu = O=C(O)[C@H](CCC(=O)[*:2])N[*:1]; x76 = not defined here; Aib = CC(C)(N)C(=O)O

Target: human GLP-1 receptor (human, UniProt P43220 24-463)
Assay: cell-based or functional assay

Binder	EC50 hGLP-1R (cAMP) [pM]
HXHGTFTSDLSKQKDEEAARLFIEWLKAGGPSSGAPPPS (dSer at 2; K(γE-X70) at 14; C-terminal NH2) [SEQ ID NO: 220]	2
HXQGTFTSDLSKQKEEKKAKLFIEWLKAGGPSSGAPPPS (dSer at 2; K(γE-x53) at 14; C-terminal NH2) [SEQ ID NO: 23]	5.6
HXQGTFTSDLSKQKEEEAAKLFIEWLKAGGPSSGAPPPS (dSer at 2; K(γE-x53) at 14; C-terminal NH2) [SEQ ID NO: 19]	1.9
H[Aib]QGTFTSDLSKQK([γGlu-x76])ESRAAQLFIEWLKAGGPSSGAPPPS-NH2 (reading uncertain) [SEQ ID NO: 203]	34.9
HXQGTFTSDLSKQKDSKAAQDFIEWLKAGGPSSGAPPPS (dSer at 2; K(γE-X95) at 14; C-terminal NH2) [SEQ ID NO: 142]	4.1
HXQGTFTSDLSKQKDSKRAXDFIEWLKAGGPSSGAPPPS (dSer at 2; K(γE-x70) at 14; Aib at 20; C-terminal NH2) [SEQ ID NO: 196]	7.8
HXQGTFTSDLSKQKESLAAQDFIEWLKAGGPSSGAPPPS (dSer at 2; K(γE-x53) at 14; C-terminal NH2) [SEQ ID NO: 150]	6
HXQGTFTSDLSKQKESEAAQLFIEWLKAGGPSSGAPPPS (dSer at 2; K(γE-x53) at 14; C-terminal NH2) [SEQ ID NO: 21]	3.8
HXQGTFTSDLSKQKESEAAQDFIEWLKAGGPSSGAPPPS (dSer at 2; K(γE-x53) at 14; C-terminal NH2) [SEQ ID NO: 20]	3.8
HXQGTFTSDLSKQKDSRRAQDFIEWLKAXGPSSGAPPPS (dSer at 2; K(γE-X70) at 14; dAla at 29; C-terminal NH2) [SEQ ID NO: 161]	5
HXQGTFTSDLSKQKDEKAAQDFIEWLKAGGPSSGAPPPS (dSer at 2; K(γE-x53) at 14; C-terminal NH2) [SEQ ID NO: 22]	1.1
HXQGTFTSDLSKQKESRAAQLFIEWLKAXGPSSGAPPPS (Aib at 2; K(γE-x76) at 14; dAla at 29; C-terminal NH2) [SEQ ID NO: 204]	34.1
HXQGTFTSDLSKQKDSKAAQDFIEWLKSGGPSSGAPPPS (dSer at 2; K(γE-x53) at 14; C-terminal NH2) [SEQ ID NO: 173]	5.7
HXQGTFTSDLSKQKESXAAQLFIEWLKAGGPSSGAPPPS (dSer at 2; K(γE-x53) at 14; Aib at 17; C-terminal NH2) [SEQ ID NO: 15]	6.6
HXQGTFTSDLSKQKEEEAAQDFIEWLKAGGPSSGAPPPS (dSer at 2; K(γE-x53) at 14; C-terminal NH2) [SEQ ID NO: 16]	2.8
HXQGTFTSDLSKQKDEEAARLFIEWLKAGGPSSGAPPPS (dSer at 2; K(γE-x53) at 14; C-terminal NH2) [SEQ ID NO: 221]	1.5
HXQGTFTSDLSKQKDKRRAQDFIEWLKAXGPSSGAPPPS (Aib at 2; K(γE-x70) at 14; dAla at 29; C-terminal NH2) [SEQ ID NO: 209]	5.4
HXQGTFTSDLSKQKDEEAARLFIEWLKAGGPSSGAPPPS (dSer at 2; K(γE-X70) at 14; C-terminal NH2) [SEQ ID NO: 222]	1.8
HXQGTFTSDLSKQKEEEAAXDFIEWLKAGGPSSGAPPPS (dSer at 2; K(γE-x53) at 14; Aib at 20; C-terminal NH2) [SEQ ID NO: 18]	2.6
HXQGTFTSDLSKQKDKRAAQLFIEWLKAXGPSSGAPPPS (Aib at 2; K(γE-x76) at 14; dAla at 29; C-terminal NH2) [SEQ ID NO: 212]	14.1
HXQGTFTSDLSKQKEEEAAKDFIEWLKAGGPSSGAPPPS (dSer at 2; K(γE-x53) at 14; C-terminal NH2) [SEQ ID NO: 17]	1.7
HXQGTFTSDLSKQKDKRAAQLFIEWLKAXGPSSGAPPPS (Aib at 2; K(γE-x70) at 14; dAla at 29; C-terminal NH2) [SEQ ID NO: 211]	15.5

Target: human glucagon receptor (human, UniProt P47871 26-477)
Assay: cell-based or functional assay

Sequence of human glucagon receptor (P47871 26-477): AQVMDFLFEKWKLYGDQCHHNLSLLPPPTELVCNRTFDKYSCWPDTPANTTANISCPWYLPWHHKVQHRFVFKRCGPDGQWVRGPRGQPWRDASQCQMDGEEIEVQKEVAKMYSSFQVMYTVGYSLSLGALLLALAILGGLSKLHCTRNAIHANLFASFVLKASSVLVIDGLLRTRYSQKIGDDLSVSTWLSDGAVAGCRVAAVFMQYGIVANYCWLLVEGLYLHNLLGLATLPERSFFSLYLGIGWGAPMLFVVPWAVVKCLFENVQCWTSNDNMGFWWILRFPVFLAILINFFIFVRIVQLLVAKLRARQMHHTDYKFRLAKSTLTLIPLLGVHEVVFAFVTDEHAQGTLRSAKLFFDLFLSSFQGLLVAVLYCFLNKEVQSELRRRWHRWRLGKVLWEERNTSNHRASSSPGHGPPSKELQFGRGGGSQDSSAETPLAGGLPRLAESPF

Binder	EC50 hGlucagon-R (cAMP) [pM]
HXHGTFTSDLSKQKDEEAARLFIEWLKAGGPSSGAPPPS (dSer at 2; K(γE-X70) at 14; C-terminal NH2) [SEQ ID NO: 220]	2.3
HXQGTFTSDLSKQKEEKKAKLFIEWLKAGGPSSGAPPPS (dSer at 2; K(γE-x53) at 14; C-terminal NH2) [SEQ ID NO: 23]	126
HXQGTFTSDLSKQKEEEAAKLFIEWLKAGGPSSGAPPPS (dSer at 2; K(γE-x53) at 14; C-terminal NH2) [SEQ ID NO: 19]	104
H[Aib]QGTFTSDLSKQK([γGlu-x76])ESRAAQLFIEWLKAGGPSSGAPPPS-NH2 (reading uncertain) [SEQ ID NO: 203]	13.1
HXQGTFTSDLSKQKDSKAAQDFIEWLKAGGPSSGAPPPS (dSer at 2; K(γE-X95) at 14; C-terminal NH2) [SEQ ID NO: 142]	2.1
HXQGTFTSDLSKQKDSKRAXDFIEWLKAGGPSSGAPPPS (dSer at 2; K(γE-x70) at 14; Aib at 20; C-terminal NH2) [SEQ ID NO: 196]	1.8
HXQGTFTSDLSKQKESLAAQDFIEWLKAGGPSSGAPPPS (dSer at 2; K(γE-x53) at 14; C-terminal NH2) [SEQ ID NO: 150]	35.5
HXQGTFTSDLSKQKESEAAQLFIEWLKAGGPSSGAPPPS (dSer at 2; K(γE-x53) at 14; C-terminal NH2) [SEQ ID NO: 21]	144
HXQGTFTSDLSKQKESEAAQDFIEWLKAGGPSSGAPPPS (dSer at 2; K(γE-x53) at 14; C-terminal NH2) [SEQ ID NO: 20]	104
HXQGTFTSDLSKQKDSRRAQDFIEWLKAXGPSSGAPPPS (dSer at 2; K(γE-X70) at 14; dAla at 29; C-terminal NH2) [SEQ ID NO: 161]	2.4
HXQGTFTSDLSKQKDEKAAQDFIEWLKAGGPSSGAPPPS (dSer at 2; K(γE-x53) at 14; C-terminal NH2) [SEQ ID NO: 22]	2.4
HXQGTFTSDLSKQKESRAAQLFIEWLKAXGPSSGAPPPS (Aib at 2; K(γE-x76) at 14; dAla at 29; C-terminal NH2) [SEQ ID NO: 204]	12.5
HXQGTFTSDLSKQKDSKAAQDFIEWLKSGGPSSGAPPPS (dSer at 2; K(γE-x53) at 14; C-terminal NH2) [SEQ ID NO: 173]	5.9
HXQGTFTSDLSKQKESXAAQLFIEWLKAGGPSSGAPPPS (dSer at 2; K(γE-x53) at 14; Aib at 17; C-terminal NH2) [SEQ ID NO: 15]	176
HXQGTFTSDLSKQKEEEAAQDFIEWLKAGGPSSGAPPPS (dSer at 2; K(γE-x53) at 14; C-terminal NH2) [SEQ ID NO: 16]	117
HXQGTFTSDLSKQKDEEAARLFIEWLKAGGPSSGAPPPS (dSer at 2; K(γE-x53) at 14; C-terminal NH2) [SEQ ID NO: 221]	9.2
HXQGTFTSDLSKQKDKRRAQDFIEWLKAXGPSSGAPPPS (Aib at 2; K(γE-x70) at 14; dAla at 29; C-terminal NH2) [SEQ ID NO: 209]	1.9
HXQGTFTSDLSKQKDEEAARLFIEWLKAGGPSSGAPPPS (dSer at 2; K(γE-X70) at 14; C-terminal NH2) [SEQ ID NO: 222]	2.9
HXQGTFTSDLSKQKEEEAAXDFIEWLKAGGPSSGAPPPS (dSer at 2; K(γE-x53) at 14; Aib at 20; C-terminal NH2) [SEQ ID NO: 18]	152
HXQGTFTSDLSKQKDKRAAQLFIEWLKAXGPSSGAPPPS (Aib at 2; K(γE-x76) at 14; dAla at 29; C-terminal NH2) [SEQ ID NO: 212]	6.6
HXQGTFTSDLSKQKEEEAAKDFIEWLKAGGPSSGAPPPS (dSer at 2; K(γE-x53) at 14; C-terminal NH2) [SEQ ID NO: 17]	93.1
HXQGTFTSDLSKQKDKRAAQLFIEWLKAXGPSSGAPPPS (Aib at 2; K(γE-x70) at 14; dAla at 29; C-terminal NH2) [SEQ ID NO: 211]	26.4
